Laboratory results taken from US7193055B2, “Compaction assay for assessment of respiratory disease therapy” (Genentech, Inc., priority 1992, dated 2007).
Entries after “also recorded” stand apart in the source; their conditions may differ.

Tests used:
[1] = system: purulent CF sputum; experiment: Compaction assay of CF sputum treated in vitro with rhDNase; assay type: biochemical, human
Protocol: Approximately 100 μL of sputum was transferred into a tared Eppendorf microcentrifuge tube with a positive displacement pipet (Gilson Microman®, equipped with a stainless steel shaft and plastic plunger). Either rhDNase or control diluent was added as volume equaling 50% of the exact sputum sample weight. Eppendorf tubes were vigorously vortexed for 15 seconds and then incubated for 15 minutes at ambient temperature. Aliquants of the treated sputum were loaded into Kimax-51, 1.5−1.8×90 mm melting point capillary tubes (Kimble Products) using 50 μL Drummond glass capillary tube (Microcaps). The loaded tubes were centrifuged for 20 minutes at 12,000 rpm in a Biofuge A microcentrifuge (Heraeus Sepatech GmbH) equipped with a horizontal, hematocrit-type rotor head (Heraeus Sepatech) and the supernatant/pellet interface subsequently inspected for resolution. On occasion some samples required up to 20 additional minutes to resolve the supernatant-pellet interface clearly. In these cases, all samples loaded on the rotor were centrifuged for the greater duration. The total height of the material loaded into the capillary tubes and the pellet height were measured in millimeters. The percent pellet was calculated as the height of the pellet divided by the height of the total material loaded, multiplied by 100.

[2] = system: DNA in sputum samples; experiment: Total DNA in pellet and supernatant fractions after compaction (DABA assay); assay type: biochemical, human; conditions: all six samples, FIG. 6
Protocol: Sputum sample DNA content was determined by a modification of the diaminobenzoic acid (DABA) assay developed by Kissane and Robins (J Biol Chem 233: 184–188 (1958]) which quantitates total DNA concentration independent of length. Previously frozen sputum aliquants were diluted tenfold with the assay diluent (25 mM HEPES, 1 mg/ml bovine serum albumin, 4 mM CaCl^2, 4 mM MgCl^2, 0.05% polysorbate 20, and 0.01% thimerasol, at pH 7.5) and incubated at 60° C. for one hour. Diluted specimens (50 μL) were pipeted into microtiter plate wells and 50 μL of a 20% 3,5-diaminobenzoic acid hydrochloride (DABA) solution was added after which the plates were tightly sealed. […] A Cytofluor (Millipore Corp.) microtiter plate flurometer (with 390 nm excitation and 530 nm emission filters) was used to read the plates. […] The coefficient of variation for the assay was determined to be <6%.
Approximately 100 μL of sputum was transferred into a tared Eppendorf microcentrifuge tube with a positive displacement pipet (Gilson Microman®, equipped with a stainless steel shaft and plastic plunger). […] The total height of the material loaded into the capillary tubes and the pellet height were measured in millimeters. The percent pellet was calculated as the height of the pellet divided by the height of the total material loaded, multiplied by 100.

[3] = system: purulent CF sputum; experiment: Dynamic cone and plate rheometry of sputum; set-up: species or system human; conditions: representative sputum sample, over the range of strain tested, FIG. 4
Protocol: Sputum rheological measurements were made at ambient temperature using the Rheometrics Fluid Rheometer (RFR-7800, Rheometrics Inc. Piscataway, N.J.) with a 0.02 radian, 25 mm radius cone and plate tool. Approximately 0.8 ml sputum was placed on the plate with 25 μL of diluent or rhDNase layered onto the top of the sputum. The cone was lowered onto the sample while the bottom plate was slowly rotated at. 5 rpm to evenly distribute the sample across the gap between the cone and plate. Drying at the sample edge was prevented by pipeting 0.1 poise silicon oil (Dow Chemical) onto the exposed edge of the cone. Rotation of the plate was stopped for five minutes to allow the sample to relax. Each preparation was tested at a deformation rate of 10 radians/sec and the percent strain was varied from 10% to 200% in 10% increments. Percent strain is defined as 100 times the distance of the shearing motion divided by the space between the cone and plate of the viscometer. The second strain value, 20% strain, was used for the comparisons between samples and treatments, being the lowest possible strain for accurate measurement. Instrument start-up frequently compromises the first data point and higher strains can damage network structures (Ferry, J Viscoelastic Properties of Polymers. 3rd ed. John Wiley and Sons, Inc. New York pg. 245-[1980]) resulting in artifacts and irreproducible data.

[4] = system: DNA in sputum samples; experiment: Agarose gel electrophoresis of DNA length in sputum samples; assay type: biochemical, human; set-up: dose or concentration left out as unconfirmed; conditions: all six sputum samples; rhDNase, 20 minutes at 25° C.
Protocol: The length of the DNA in sputum samples was determined qualitatively by agarose gel electrophoresis as described by Shak et al., Supra. The effect of freezing on sputum DNA length was studied by electrophoresing samples with and without one cycle of freezing at −70° C. Samples were diluted four-fold in a buffer containing 100 mM NaCl, 5 mM EDTA, 0.5% SDS, 100 μg/ml proteinase K (Sigma), 50 mM Tris, pH 8.0, and incubated for three hours at 37° C. with occasional mixing. Samples were then electrophoresed in 0.5% agarose gels and stained with ethidium bromide by standard procedures (Sambrook, et al., Molecular Cloning: A Laboratory Manual, 2nd ed. Cold Spring Harbor Laboratory Press [1989]). A 1 Kb DNA ladder having 12 major bands between 500 bp to 12 Kb (Gibco/BRL 5615SA) was used as the molecular weight standard.

[5] = catalytic amounts of rhDNase (Shak et al.); cited from earlier work
[6] = rhDNase concentration in sputum after inhalation; assay type: in vivo, human; conditions: inhalation of 10 mg rhDNase; sputum collected one hour after inhalation
[7] = 1 and 4 mg/mL rhDNase solutions, aerosolized (Aitken et al., Hubbard et al.); cited from earlier work

concentration above which rhDNase is maximally effective (fit of dose-response curve) ([1]; CF sputum sample, FIG. 7): above 1 μg/ml | concentration below which rhDNase is minimally effective (fit of dose-response curve) ([1]; CF sputum sample, FIG. 7): below 0.1 μg/ml | minimum in vitro rhDNase concentration showing activity in the compaction assay ([1]; in vitro, sputum): 1 μg rhDNase/mL sputum
B1: rhDNase: recombinant human DNase I cloned and expressed at Genentech; used as 4 mg/ml solution in 1 mM CaCl2, 150 mM NaCl, pH 7.4 (protein, UniProt P24855 23-282, looked up)
Deoxyribonuclease-1: LKIAAFNIQTFGETKMSNATLVSYIVQILSRYDIALVQEVRDSHLTAVGKLLDNLNQDAPDTYHYVVSEPLGRNSYKERYLFVYRPDQVSAVDSYYYDDGCEPCGNDTFNREPAIVRFFSRFTEVREFAIVPLHAAPGDAVAEIDALYDVYLDVQEKWGLEDVMLMGDFNAGCSYVRPSQWSSIRLWTSPTFQWLIPDSADTTATPTHCAYDRIVVAGMLLRGAVVPDSALPFNFQAAYGLSDQLAQAISDHYPVEVMLK
distribution of total DNA between pellet and supernatant following compaction [2]: redistribution of total DNA from the pellet to the supernatant | effect on elasticity modulus [3]: more greatly affected | effect on viscosity modulus [3]: reduced measured values of viscosity | DNA size after hydrolysis (complete hydrolysis) [4]: less than 500 base pairs | viscosity of purulent cystic fibrosis sputum [5]: greatly reduced the viscosity | concentrations of rhDNase in sputum [6]: 1000 to 20000 ng/mL | pulmonary function in CF patients [7]: increased pulmonary function; also recorded: improved lung function
